Measured values: the supplement of paper PMC10567573
± gives the standard deviation.

Test: protein stability index of a GFP-peptide fusion (GPS, HEK-293T) (PSI 1-6); higher = more stable
Conditions: c terminus: a fixed tail appended
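Further: 24-mer peptide tiles fused after GFP, lentivirally expressed, FACS-sorted into six equal bins by GFP/DsRed ratio, decoded by Illumina sequencing, PSI is the read-weighted mean bin number.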

Sequence	protein stability index (treatment: DMSO)	protein stability index (treatment: MLN4924 1 uM, 8 h)
LLEPEEGGRAYQALHCPTGTEYTC [TRIB3]	3.8 ± 0.31	4.1 ± 0.23
LLIANKRQSYDISIVAQVDQTGSK [CARM1]	2.47 ± 0.25	2.52 ± 0.26
LLLERAAAGSPRSPGPLPGARGLH [ISL2]	2.8 ± 0.15	2.97 ± 0.049
LLQLSDACRFQEDQEMARDLVERA [TCF25]	3.64 ± 0.34	3.77 ± 0.52
LLQSFHGHGADVLCLDLAPSETGN [GNB5]	3.23 ± 0.3	3.39 ± 0.14
LLRRDLGVGTSMEGASPLSERCQR [FANCE]	4.01 ± 0.15	4.17 ± 0.083
LLTVTATDRDEGANGEVTYSFRKL [PCDHGA10]	4.1 ± 0.26	4.15 ± 0.33
LMPGMPPGMPPPVPRPGIPPMTQA [ZNF207]	4.01 ± 0.34	4.2 ± 0.31
LNEKRTFFHLSALKGYLYAVGGRN [KLHL13]	2.49 ± 0.68	2.33 ± 0.46
LPDAGSGRQPALRPHVHKQTEKTT [ISL2]	5.26 ± 0.22	5.04 ± 0.23
LPEKPVKLASHTRDTTGVSQMFPS [FBF1]	3.97 ± 0.13	3.99 ± 0.47
LPESLARSLLPSTEYQKQLLAAQV [FBF1]	2.75 ± 0.46	2.56 ± 0.26
LPGSYLSSECHTSGFVGSGGWFCE [KRT36]	2.15 ± 0.39	2.24 ± 0.26
LPIVKLLAKQPGVSVNAQTLDGRT [RIPK4]	2.71 ± 0.17	3.13 ± 0.56
LPSRPPPLLSPLLASRNPCPWHYL [RSPH3]	2.27 ± 0.2	2.15 ± 0.22
LQDQEKAWGFPENATAPRSPSHSP [ELOA2]	5.38 ± 0.26	5.4 ± 0.26
LQRASILDMRRDHEEQLQRLKLLK [FBF1]	3.43 ± 0.48	3.72 ± 0.33
LQVIYWARDVFIITGVWVFFFNPC [GOSR1]	2.37 ± 0.7	2.57 ± 0.15
LRAVEQAMGHSQDRLTTFQENQAR [LRRC45]	4.48 ± 0.23	4.34 ± 0.22
LRIFVWLLLLYFMQVIAIVLYLMM [PHTF1]	2.99 ± 0.71	2.75 ± 0.55
LRIRSVEGRKKAFSTCGSHLTVVA [OR3A1]	2.43 ± 0.42	2.2 ± 0.47
LRKGYLFMYNLVQFLGFSWIFVNL [HACD3]	3.5 ± 0.29	3.22 ± 0.31
LRNNFQKQLLSNKELILDKVYTHP [ZC2HC1C]	2.76 ± 0.23	3.08 ± 0.25

Sequence	protein stability index (treatment: DMSO)	protein stability index (treatment: MLN4924 1 uM, 8 h)
LRQHGPPNIVVAIAGNKCDLIDVR [RAB22A]	2.46 ± 0.39	2.4 ± 0.52
LRSAGVEQLMYIKEDLIIPHHHSF [FAM50A]	2.38 ± 0.35	2.37 ± 0.25
LRYLSSIWNILDLVVILLSIVAVG [PKD2L1]	2.66 ± 0.65	3.3 ± 0.32
LSFEQMTDAHVWNKSVTLYTVKDK [NLN]	2.61 ± 0.61	3.09 ± 0.63
LSLGALVALCWQLGLLFERHWHRP [SCNN1D]	3.09 ± 0.24	3.16 ± 0.19
LSLLVHNVSVMHKSLDNMPNDEHW [FBXO33]	2.36 ± 0.31	2.4 ± 0.14
LSPKIMQEAFLVQEVVELPVTERQ [TBC1D10A]	3.98 ± 0.19	3.91 ± 0.39
LSQADFLVCTFSSQVCRVAYEIMQ [FUT8]	2.96 ± 0.39	2.93 ± 0.58
LSSQCFSNISRPRDNPMCLKCDLQ [M1AP]	3.2 ± 0.035	3.27 ± 0.15
LTERKYKGDSTIRELKAKLSGVEE [SASS6]	4.18 ± 0.41	4.63 ± 0.52
LTFMNEQGEYPPGTSTWQFNFKFN [CNOT7]	2.21 ± 0.074	2.39 ± 0.3
LTPGQSDSAKREVKQKISPYFKSN [FAN1]	3.92 ± 0.19	3.97 ± 0.26
LTRQLVSCSSDGGIAVWNMDVSRE [WDFY1]	2.96 ± 0.32	3.08 ± 0.2
LTTKGEMPVQLTSRREIRKIMGVE [ANKRD40]	3.7 ± 0.048	3.85 ± 0.18
LVFLELAQFHCAYQLADWCLHHIC [RHOBTB2]	3.16 ± 0.17	2.98 ± 0.43
LVGAQAPATEEQEAASSSSTLVEV [MAGEA3]	5.43 ± 0.21	5.3 ± 0.097
LYGGMNYRRLGGGVGVIKMTHCES [KLHL20]	2.3 ± 0.25	2.85 ± 0.66
LYRNGKDQDGDQAPEYRGRTELLK [MOG]	4.59 ± 0.14	4.68 ± 0.34
MAAGFPYALRAYLGYQAVPSGSSG [CEBPB]	2.1 ± 0.3	2.04 ± 0.18
MAAHLKKRVYEEFTKVVQPQEEIA [INTS4]	3.67 ± 0.093	3.68 ± 0.7
MAAPPKAPIRVRNLTIRAGALTGK [DMRTC1]	3.57 ± 0.33	3.73 ± 0.22
MADPWQECMDYAVTLARQAGEVVC [IMPA1]	2.56 ± 0.44	2.37 ± 0.21
